The results in this text go back to paper PMC8954747 (Viruses, 2022).

As a reminder, the Kd is the concentration at which binding is half-saturated. Higher therefore signals a looser complex. The stoichiometry N is the number of molecules, sites or subunits per partner or assembly.

Common to all, as to experiment: ITC
Conditions in all cases: both partners purified

Assay [1] addresses T1, human Scribble (SCRIB) PDZ3 domain (residues 1002-1093) (human, UniProt Q14160 1002-1093).
T1 construct: also called wild-type SCRIB PDZ3
T1 sequence (looked up): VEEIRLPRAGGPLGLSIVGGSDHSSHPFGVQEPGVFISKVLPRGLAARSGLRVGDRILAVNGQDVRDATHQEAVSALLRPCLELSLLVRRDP

The target of assay [2] is T2, human Scribble (SCRIB) PDZ2 domain (residues 860-950) (human, UniProt Q14160 860-950).
T2 construct: also called PDZ2 WT
T2 sequence (looked up): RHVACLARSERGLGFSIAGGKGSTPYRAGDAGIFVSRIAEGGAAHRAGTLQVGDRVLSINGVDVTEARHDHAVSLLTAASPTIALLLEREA

The target in assay [3] is T3, human Scribble (SCRIB) PDZ1 domain (residues 725-815) (human, UniProt Q14160 725-815).
T3 construct: also called PDZ1 WT

Assay [4] concerns the target T4, human Scribble (SCRIB) PDZ4 domain (residues 1099-1203) (human, UniProt Q14160 1099-1203).
T4 sequence (looked up): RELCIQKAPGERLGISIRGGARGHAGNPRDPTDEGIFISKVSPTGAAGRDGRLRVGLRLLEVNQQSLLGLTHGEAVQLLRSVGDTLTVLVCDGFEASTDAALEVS

T3 sequence (Q14160 725-815): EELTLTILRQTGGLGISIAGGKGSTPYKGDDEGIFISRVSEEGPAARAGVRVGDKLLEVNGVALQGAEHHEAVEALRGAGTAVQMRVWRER

Take KMARTIESKV [NS1 ESKV PBM peptide KMARTIESKV (H5N1 A/chicken/Hubei/327/2004), 10-mer]: the Kd came to 12.1 µM in assay [1], 9.5 µM in assay [2] and 30 µM in assay [3]. Further, the “stoichiometry N” value stood at 1.1 in assay [1], 1.1 in assay [2] and 1.2 in assay [3].
Consider KMARTIESEV [NS1 ESEV PBM peptide KMARTIESEV (H5N1 A/Viet Nam/1194/2004), 10-mer], for which the Kd was found to be 13.1 µM in assay [1], 12.2 µM in assay [4], 18.7 µM in assay [2] and 21.4 µM in assay [3]. Also, the “stoichiometry N” value in assay [1] turned out to be 1.1 ± 0.1; in assay [4] it was 1 ± 0.1; in assay [2], 1 ± 0.03; in assay [3] it was 1.1 ± 0.1.
